From patent publication US20160024208A1 (Regeneron, published 2016)
Read-outs that look alike come from different tables or passages of the source.

Assays:
[1] = biological target: T1, mouse Nav 1.7 in DRG neurons of wild type (Scn9a +/+) mice (mouse, UniProt Q62205 1-1984); experiment: immunocytochemistry on cultured DRG neurons, antibody 66 nM
T1 construct: whole, on cells
Protocol: Briefly, lumbar DRGs were harvested from Scn9a^{hu/+}, Scn9a^{hu3-1/hu3-1} and Scn9a^{+/+} mice. After dissociation, cells were plated at a density of 5.5×10⁴ cells/well on 96 well plates treated with poly-DL-ornithine (0.1 mg/ml) and laminin (5 μg/ml) followed by incubation at 37° C. in 96.5% air and 3.5% CO₂. Neurons were maintained in culture in DMEM supplemented with 50 ng/ml nerve growth factor, 100 U/ml penicillin/streptomycin, MEM vitamins, and 10% heat-inactivated fetal calf serum.
After 3 to 8 days in culture, neurons were fixed in 4% PFA and 4% sucrose in PBS for 30 minutes, and permeabilized in 10% NGS and 0.1% Triton X-100. Neurons were then incubated overnight at 4° C. with anti-Naᵥ 1.7 antibodies at 66 nM (1 μg). The next day, neurons were incubated in 1:400 dilution of anti-human Alexa Fluor® 594 (Invitrogen) conjugated secondary antibody for 1 h at RT. Images were taken using a fluorescent microscope.

[2] = biological target: T2, C-Term Biotin Nav1.7 (3-3) peptide, mouse (mouse, C-terminal biotin attached via a G4S linker); experiment: SPR, captured antibody, peptide analyte
T2 construct: Synthetic peptide; also called Mouse Nav1.7 3-3 C-term biotin
T2 peptide: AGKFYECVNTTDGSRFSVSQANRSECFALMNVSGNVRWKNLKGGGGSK
Outline: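 Biacore SPR: antibody captured via Fc on anti-Fc surface, Nav1.7 loop peptides injected as analyte at several concentrations. Double-referenced sensorgrams globally fitted to a 1:1 model; KD = kd/ka, t1/2 = ln2/kd.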

[3] = biological target: T3, Native Nav1.7 (3-3) peptide, human (human); experiment: Biacore (second token of ELISA/Biacore summary)
T3 construct: Synthetic peptide, unbiotinylated; also called Human Nav1.7 3-3 native; Nav1.7 3-3 native peptide
T3 peptide: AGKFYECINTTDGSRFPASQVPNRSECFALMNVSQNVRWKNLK

[4] = biological target: T3, Native Nav1.7 (3-3) peptide, human; experiment: Biacore (second token of ELISA/Biacore summary)
[5] = biological target: T4, C-term Biotin Nav1.7 (3-3) peptide, human (human, C-terminal biotin attached via a G4S linker); experiment: SPR, captured biotin-peptide, antibody analyte
T4 construct: Synthetic peptide; also called Human Nav1.7 3-3 C-term biotin
T4 peptide: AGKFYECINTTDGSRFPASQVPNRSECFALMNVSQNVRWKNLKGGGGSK

[6] = biological target: T5, N-Term Biotin-Nav1.7 (3-3) peptide, human (same sequence of EC3-3 for mulatta) (human (same sequence of EC3-3 for …, not fully specified; N-terminal biotin attached via a G4S linker); experiment: ELISA on coated peptide, antibody 1 ug/ml, OD450 grade; Monkey column
T5 construct: ELISA peptide
T5 peptide: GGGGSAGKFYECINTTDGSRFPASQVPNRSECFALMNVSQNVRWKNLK
Protocol: (§1) Anti-Naᵥ 1.7 antibodies were tested for their ability to bind to the Naᵥ 1.7 peptides. The various peptides were coated overnight onto 96-well Nunc Immunosorp plates at a concentration of 4 μg/mL in PBS, followed by blocking for 1 hour in a suitable blocking agent. For biotinylated peptides, avidin was first coated on Nunc Immunosorp plates at 2 μg/mL in PBS overnight, followed by blocking as described, and the plate was then coated with biotinylated peptides at a concentration of 0.4 μg/mL and incubated for 1 hour at room temperature. Purified anti-Naᵥ 1.7 antibodies were diluted to a final concentration of 0.1 μg/mL and 1.0 μg/mL and added to the wells of the coated microtiter plates followed by incubation for 1 hour at room temperature. Bound antibodies were detected with horseradish peroxidase (HRP) conjugated anti-mouse or anti-human IgG (Jackson Immuno Research Lab, West Grove, Pa.) depending on the antibody species and developed by colorimetric response using tetramethylbenzidine (TMB) substrate (BD Biosciences). Absorbance was read at OD₄₅₀ on a plate reader for 0.1 second.
(§2) Values in Table 11 represent absolute binding ranges (at OD450) to plate-coated peptides for antibodies added at 1 μg/ml as follows: OD450<0.2: −; 0.2<OD450<1: +; 1<OD450<2: ++; 2<OD450<4: +++; NT: Not Tested.

[7] = biological target: T5, N-Term Biotin-Nav1.7 (3-3) peptide, …; experiment: ELISA on coated peptide, antibody 1 ug/ml, OD450 grade; Human
Protocol: as §1, §2

[8] = biological target: T6, N-Term Biotin Nav1.7 (3-1) peptide, mouse (mouse, not fully specified; N-terminal biotin attached via a G4S linker); experiment: ELISA on coated peptide
T6 construct: Synthetic peptide; also called Mouse Nav1.7 3-1 N-term biotin
T6 peptide: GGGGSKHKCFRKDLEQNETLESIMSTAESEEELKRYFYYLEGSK
Outline: (§3)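 Peptides coated at 4 μg/mL in PBS, or biotinylated peptides captured at 0.4 μg/mL on avidin (2 μg/mL). Antibodies at 0.1 and 1.0 μg/mL, 1 h at room temperature, detected with HRP anti-mouse or anti-human IgG and TMB at OD450. Scores at 1 μg/ml: <0.2 −; 0.2–1 +; 1–2 ++; 2–4 +++.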

[9] = biological target: T7, Native Nav1.7 (3-1) peptide, rat (rat); experiment: ELISA on coated peptide
T7 construct: Synthetic peptide; also called Rat Nav1.7 3-1 native
T7 peptide: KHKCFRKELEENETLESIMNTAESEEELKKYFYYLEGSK
Outline: as §3

T1 sequence (Q62205 whole entry): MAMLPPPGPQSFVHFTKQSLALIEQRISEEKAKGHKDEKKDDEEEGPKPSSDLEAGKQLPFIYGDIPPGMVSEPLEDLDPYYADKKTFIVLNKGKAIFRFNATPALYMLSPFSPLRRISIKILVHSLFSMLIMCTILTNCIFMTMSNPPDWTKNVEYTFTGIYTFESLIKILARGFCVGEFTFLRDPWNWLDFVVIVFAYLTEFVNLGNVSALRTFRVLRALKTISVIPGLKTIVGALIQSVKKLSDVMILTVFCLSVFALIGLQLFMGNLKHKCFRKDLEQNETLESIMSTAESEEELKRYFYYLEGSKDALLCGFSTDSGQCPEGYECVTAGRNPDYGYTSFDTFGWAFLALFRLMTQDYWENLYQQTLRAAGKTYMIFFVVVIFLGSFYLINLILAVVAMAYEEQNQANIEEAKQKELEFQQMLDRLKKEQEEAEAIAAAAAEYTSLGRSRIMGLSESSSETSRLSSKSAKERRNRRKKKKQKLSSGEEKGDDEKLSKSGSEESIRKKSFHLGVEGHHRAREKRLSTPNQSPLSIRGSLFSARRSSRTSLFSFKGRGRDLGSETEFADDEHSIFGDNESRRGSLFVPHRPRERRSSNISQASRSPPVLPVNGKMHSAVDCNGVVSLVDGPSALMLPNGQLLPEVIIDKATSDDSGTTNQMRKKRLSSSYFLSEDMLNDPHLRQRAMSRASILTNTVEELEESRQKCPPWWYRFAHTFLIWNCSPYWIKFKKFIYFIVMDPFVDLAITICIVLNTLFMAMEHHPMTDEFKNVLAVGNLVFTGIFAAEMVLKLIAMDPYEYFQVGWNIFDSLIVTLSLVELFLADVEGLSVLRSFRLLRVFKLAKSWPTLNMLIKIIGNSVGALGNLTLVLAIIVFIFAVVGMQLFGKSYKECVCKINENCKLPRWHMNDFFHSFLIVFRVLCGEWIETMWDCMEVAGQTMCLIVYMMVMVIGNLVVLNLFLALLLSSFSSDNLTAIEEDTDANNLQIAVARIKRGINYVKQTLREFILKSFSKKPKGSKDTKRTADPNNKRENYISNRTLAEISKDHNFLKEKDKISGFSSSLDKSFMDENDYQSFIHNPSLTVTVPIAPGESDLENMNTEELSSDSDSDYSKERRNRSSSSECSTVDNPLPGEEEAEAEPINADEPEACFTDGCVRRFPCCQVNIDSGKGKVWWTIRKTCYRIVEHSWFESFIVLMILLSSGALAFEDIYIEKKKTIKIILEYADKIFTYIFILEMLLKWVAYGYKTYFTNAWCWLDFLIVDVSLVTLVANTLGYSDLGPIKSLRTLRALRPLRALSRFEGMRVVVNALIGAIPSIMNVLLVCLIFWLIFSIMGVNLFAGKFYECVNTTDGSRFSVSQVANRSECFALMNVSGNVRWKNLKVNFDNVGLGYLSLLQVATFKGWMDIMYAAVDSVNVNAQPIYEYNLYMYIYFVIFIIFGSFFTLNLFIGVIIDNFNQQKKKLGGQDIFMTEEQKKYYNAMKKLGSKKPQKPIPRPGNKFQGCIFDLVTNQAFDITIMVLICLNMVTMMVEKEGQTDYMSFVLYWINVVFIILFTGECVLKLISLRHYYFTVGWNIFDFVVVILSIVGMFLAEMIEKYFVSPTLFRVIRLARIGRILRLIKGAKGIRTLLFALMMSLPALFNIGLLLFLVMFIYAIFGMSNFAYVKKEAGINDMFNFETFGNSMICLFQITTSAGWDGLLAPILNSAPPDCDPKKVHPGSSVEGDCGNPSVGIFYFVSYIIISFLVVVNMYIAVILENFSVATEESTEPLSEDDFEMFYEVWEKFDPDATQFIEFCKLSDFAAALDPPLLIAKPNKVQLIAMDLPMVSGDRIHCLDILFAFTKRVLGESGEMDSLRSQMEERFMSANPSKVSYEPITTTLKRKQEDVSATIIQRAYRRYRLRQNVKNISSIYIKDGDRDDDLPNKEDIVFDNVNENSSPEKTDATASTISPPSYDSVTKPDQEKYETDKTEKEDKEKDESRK

B1: H1H1006B (antibody, V domains shown)
VH: EVQLVESGPGLVKSSETLSLKCTVSGGSISSSGYYWGWIRQPPGKGLEWIGSIHRSGSTFYNPSLKSRVTISVDTSKSQFSLRLTSVTAADTSVYFCGRHGRDYYYGMDVWGQGTTVTVSS
VL: DIQMTQSPSSVSASVGDRVTITCRSSQDINNWLVWYQQKPGKAPKVLIYGASRLQSGVPSRFSGSGSGTDFTLTISSLQPEDFATYYCQQANSFPLTFGGGTKVEIKR
notes: Fully human antibody; also called H4H1006B-1
B1: binds [1].

B2: H1M852N (antibody, V domains shown)
VH: QVQLVESGGGVVQPGRSLTLSCAASGFMFNRFGMHWVRQAPGKGLDWVAVIWYDGSNKYYADSVKGRFTISRDNSKNTLYLQVNSLRAEDTAVYYCAREGTPHYYDSSGLDYWGQGTLVTVSS
VL: AIQMTQSPSSLSAYVGDRVTITCRASQDIRNDLGWYQQKPGKAPNLLIYDISSLQSGVPSRFSGSGSGTDFTLTISSLQPEDFATYYCLQDYNYPLTFGGGTKVEIK
notes: constant region may differ; also called H4H852N
For B2, the binding result [2] was “no binding”, the Kd [3] was > 200 nM and the Kd [4] was > 200 nM. The Kd [5] was 117 nM, the t1/2 [5] was 1.3 min and the OD450 [6] was 1 to 2 od. For the same binder, the OD450 [7] was 1 to 2 od.

B3: H1M879N (antibody, V domains shown)
VH: EVQLVESGGGLVKPGGSLRLSCAASGFTFSSYTIHWVRQAPGKGLEWVSSISSSSSYIYYVDSVKGRFTISRDNAKNSVYLQMNSLRAEDTAVYYCATSSITARGYFDYWGQGTLVTVSS
VL: EIVLTQSPATLSLSPGERVTLSCRASQSVSSYLAWYQQKPGQAPRLLIYDASNRATGIPARFSGSGSGTDFTLTISSLEPEDFAVYYCQQRNIWPPTFGQGTKVEIK
notes: Hybridoma-derived
For B3, the OD450 [8] was < 0.2 od and the OD450 [9] was < 0.2 od.
